The results in this text go back to article PMC4763257, “A replaceable liposomal aptamer for the ultrasensitive and rapid detection of biotin”.

In the series the target is streptavidin (UniProt P22629 25-183). The series can be described thus: plate binding assay, liposome SRB fluorescence; at least 10-fold over aptamer-free liposomes; displaced by biotin; Streptavidin (10 ug/ml) coated plate, blocked with 1% BSA and 0.01 mg/ml salmon sperm DNA in TBS; 80 ul liposomal aptamer 1 h at RT; washes in TBS-sucrose; pH and salt not given. Particulars: protein: commercial; chain copies: 4; label: SRB-encapsulating liposome.
streptavidin, sequence (P22629 25-183): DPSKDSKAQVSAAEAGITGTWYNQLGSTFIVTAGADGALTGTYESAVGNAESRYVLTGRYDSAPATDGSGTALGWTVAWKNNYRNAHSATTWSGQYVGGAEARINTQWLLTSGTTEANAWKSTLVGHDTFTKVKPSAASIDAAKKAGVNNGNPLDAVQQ

B1: ST-21M liposomal aptamer (structured_DNA)
DNA: ATTGACCTCTGTGTGACGCAACACTCAAT
modifications: 3'-TEG-cholesterol
As to B1, the binding result was “binds”.

B2: ST-21 liposomal aptamer (structured_DNA)
DNA: ATTGACCGCTGTGTGACGCAACACTCAAT
modifications: 3'-TEG-cholesterol
On to B2, for which the binding result is “binds”.
